Measurements as given in US20230235080A1, “TROPHOBLAST CELL-SURFACE ANTIGEN-2 (TROP-2) ANTIBODIES” (Bionecure Therapeutics, Inc., priority 2020, published 2023).

How the values were obtained:
[1] = molecular target: T1, human Trop-2-ECD-6His fusion protein (human, UniProt P09758 27-274); assay: BLI (Octet), antibody at 8 ug/ml, human Trop-2ECD-6His at 3.125-50 nM
T1 construct: Expressed in a human 293 cell line; also called huTrop-2; human Trop-2 antigen
T1 sequence: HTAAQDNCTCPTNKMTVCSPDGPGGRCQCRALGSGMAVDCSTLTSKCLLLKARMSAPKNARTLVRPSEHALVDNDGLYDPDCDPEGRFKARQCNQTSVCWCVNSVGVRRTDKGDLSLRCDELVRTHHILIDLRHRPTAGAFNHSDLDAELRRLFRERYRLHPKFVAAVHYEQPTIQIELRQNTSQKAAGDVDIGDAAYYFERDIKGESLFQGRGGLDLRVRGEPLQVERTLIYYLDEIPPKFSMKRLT
Protocol: The binding affinity of the purified anti-Trop-2 IgGs to human Trop-2 protein were determined by Octet system based on Bio-Layer Interferometry (BLI) technique. BLI is a layer of molecules attached to the tip of an optic fiber which creates an interference pattern at the detector, any change in the number of molecules bound causes a measured shift in the pattern. Octet system enables real-time analysis for determination of affinity and kinetics from biomolecular interactions in 96-well microplates. […] A1X4 or A1,2X4 antibody was diluted and added to the assigned wells at a final concentration 8 µg/ml. The plate was put in the Octet system and assay was started. The data was analyzed using the Octet Data Acquisition Software (fortebio data analysis 10.0) to calculate an association rate constant Kon, a dissociation rate constant Koff, and a dissociation constant Kd (Kd = Koff/Kon).

[2] = molecular target: T2, mouse Trop-2-His (mouse, UniProt Q8BGV3 25-270); assay: ELISA on coated antigen, one antibody dilution (concentration not given), detected by GAH-HRP, OD450nm
T2 sequence (looked up): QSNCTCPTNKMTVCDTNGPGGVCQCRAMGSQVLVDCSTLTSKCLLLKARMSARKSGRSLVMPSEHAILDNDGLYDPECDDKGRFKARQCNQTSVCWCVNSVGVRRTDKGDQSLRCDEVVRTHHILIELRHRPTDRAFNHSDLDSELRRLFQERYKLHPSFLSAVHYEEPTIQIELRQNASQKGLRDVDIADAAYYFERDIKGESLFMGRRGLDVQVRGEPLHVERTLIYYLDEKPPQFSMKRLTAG
Protocol: (§1) The cross-reactivity of purified IgGs to the Trop-2 antigens from different species was tested by ELISA. In this experiment, a microtiter plate was coated overnight at 4° C. with 50 µL/well of 1 µg/mL human Trop-2ECD-6His, mouse Trop-2-His, cynomolgus Trop-2-His, human EPCAM-His, and a non-related protein. The plate was washed and blocked for 1 hr at 37° C., and then washed with wash buffer. Purified anti-Trop-2 antibodies appropriately diluted in PBS were added to wells and incubated for 1 hour at 37° C. After washing, bound antibodies were detected using HRP-conjugated goat-anti-human IgG antibody. Color development and absorbance at OD450 nm were read. A non-specific human IgG1 was included as a negative control, while hRS7 was used as a positive control.

[3] = molecular target: T3, human EPCAM-His (human, UniProt P16422 24-265); assay: as above
T3 construct: also called hEPCAM
T3 sequence (looked up): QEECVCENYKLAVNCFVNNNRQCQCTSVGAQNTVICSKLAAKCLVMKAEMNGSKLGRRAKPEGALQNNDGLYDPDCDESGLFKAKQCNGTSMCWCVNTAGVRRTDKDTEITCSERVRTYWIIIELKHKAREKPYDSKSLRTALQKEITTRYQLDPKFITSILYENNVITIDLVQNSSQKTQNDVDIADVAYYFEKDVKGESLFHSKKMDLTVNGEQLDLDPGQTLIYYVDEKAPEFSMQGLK
Protocol: as §1

[4] = molecular target: T4, human Trop-2 on Trop-2 positive cancer cells (human, UniProt P09758 27-323); assay: flow cytometry on MDA-MB-468 cells, MFI at 4 °C against the antibody concentration (about 400 to 10000 ng/ml); Kd (µg/ml) printed beside the legend
T4 construct: Endogenous Trop-2 of human tumour cell lines
T4 sequence (looked up): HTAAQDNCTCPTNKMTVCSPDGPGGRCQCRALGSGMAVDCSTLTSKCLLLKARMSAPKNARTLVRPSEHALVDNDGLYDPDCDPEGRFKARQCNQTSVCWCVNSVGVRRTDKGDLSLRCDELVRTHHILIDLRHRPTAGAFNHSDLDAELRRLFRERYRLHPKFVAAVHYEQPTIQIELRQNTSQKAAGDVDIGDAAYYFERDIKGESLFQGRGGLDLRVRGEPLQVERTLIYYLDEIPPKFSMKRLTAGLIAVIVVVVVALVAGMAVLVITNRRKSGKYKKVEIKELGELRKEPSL
Protocol: Internalizationi and degradation of anti-Trop-2 antibodies was measured by flow cytometry. In this study, fluorescent-conjugated secondary antibodies were used to detect the primary antibodies left on after internalization.
Next, either hRS7, or A1X4, or A1,2X4 antibody was added to cells in FACS buffer at concentrations of 400, 1000, 3000, or 10000 ng/ml, respectively, and incubated for 30 minutes at 4° C. After incubation, the cells were washed three times with FACS buffer to removed unbound antibody. The cells were then incubated at 37° C. with 5% CO₂ for antibody internalization. After 2 hours, the cells were dissociated with Trypsin and stained with fluorescent-conjugated goat anti-human IgG secondary antibodies for 30 minutes on ice in dark before being analyzed using Beckman flow cytometry system. The fluorescent intensity and cell binding percentage at each time point were analyzed by Beckman flow cytometric software. The amount of anti-Trop-2 antibodies internalized into cells at each concentration was determined using the following formula: % internalization rate = 100 × (MFI₄°C- MFI₃₇°C) / MFI₄°C

- Kd [1]: 4.09 nM
- koff [1]: 0.000844 s⁻¹
- binding result [2]: no binding
- binding result [3]: no binding
- Kd [4]: 0.93 µg/mL
B1: humanized IgG A1,2X4 (antibody, V domains shown)
VH: QVQLQESGPGLVKPSETLSLTCTVSGFSLTSYGVNWIRQPPGKGLEWIGVMWAGGSTNYNSALMSRLTISKDTSKNQFSLKLSSVTAADTAVYYCARDENWDGAWFAYWGQGTLVTVSS
VL: DIVMTQSPDSLAVSLGERATINCKSSQSLLNSGTRKNYLAWYQQKPGQPPKLLISWASSRESGVPDRFSGSGSGTDFTLTISSLQAEDVAVYYCKQSYNLFTFGGGTKVEIKR
notes: Full-length IgG expressed in 293 cells; also called IgG HuA(1,2)/Lu(X4)
